Tests used:
[1] = test system: RAW 264.7 cells; experiment: IL-6 release from RAW 264.7 cells (ELISA); format: cell-based, murine; details: B box 0-10 μg/ml, 8 hours
Description: (§1) To further examine the effect of HMGB1 B box on cytokine production, varying amounts of HMGB1 B box were evaluated for the effects on TNF, IL-1 B, and IL-6 production in murine macrophage-like RAW 264.7 cells. Conditioned media were harvested and measured for TNF, IL-1β and IL-6 levels. TNF levels were measured as described herein, and IL-1β and IL-6 levels were measured using the mouse IL-1β and IL-6 enzyme-linked immunosorbent assay (ELISA) kits (R&D System Inc., Minneapolis, Minn.) and N>5 for all experiments.

[2] = test system: RAW 264.7 cells; experiment: IL-1β release from RAW 264.7 cells (ELISA); format: cell-based, murine; details: B box 1 μg/ml or 10 μg/ml, 8 hours
Description: as §1

[3] = test system: HMGB1; experiment: A box antagonism of full length HMGB1 TNF release in RAW 264.7 macrophage cultures (ELISA); format: cell-based; details: co-addition with HMGB1, 16 hours, polymyxin B
Description: Antagonism of full length HMGB1 activity by HMGB1 A box or GST tag (vector control) was also determined by measuring TNF release from RAW 264.7 macrophage cultures stimulated by co-addition of A box with full length HMGB1. RAW 264.7 macrophage cells (ATCC) were seeded into 24-well tissue culture plates and used at 90% confluence. The cells were treated with HMGB1, and/or A boxes as indicated for 16 hours in Optimum I medium (Life Technologies, Grand Island, N.Y.) in the presence of polymyxin B (100 units/ml, Sigma, St. Louis, Mo.) and supernatants were collected for TNF measurement (mouse ELISA kit from R&D System Inc, Minneapolis, Minn.). TNF-inducing activity was expressed as a percentage of the activity achieved with HMG-1 alone. FIG. 4B is a histogram of the effect of HMGB1, alone, A box alone, Vector (control) alone, HMGB1 in combination with A box, and HMGB1 in combination with vector.

[4] = test system: HMGB1; experiment: A box inhibition of HMGB1 induced TNF release from RAW 264.7 cells (L929 assay); format: cell-based; details: HMGB1 1 μg/ml, A box 0-25 μg/ml, 16 hours
Description: Weak agonists are by definition antagonists. […] This study was carried out as follows. Sub-confluent RAW 264.7 cells in 24-well dishes were treated with HMGB1 (1 μg/ml) and 0, 5, 10, or 25 μg/ml of A box for 16 hours in Opti-MEM I medium in the presence of polymyxin B (100 units/ml). The TNF-stimulating activity (assayed using the L929 cytotoxicity assay described herein) in the sample receiving no A box was expressed as 100%, and the inhibition by A box was expressed as percent of HMGB1 alone. […] Data in FIG. 4A are presented as mean±SD (n=2-3 independent experiments).

[5] = test system: RAW 264.7 cells; experiment: 125I-HMGB1 cell surface binding to RAW 264.7 cells; design: species or system murine; details: 4° C.
Description: Purified HMGB1 protein (10 μg) was radiolabeled with 0.2 mCi of carrier-free ^125I (NEN Life Science products Inc., Boston, Mass.) using Iodo-beads (Pierce, Rockford, Ill.) according to the manufacturer's instructions. ^125I-HMGB1 protein was separated from un-reacted ^125I by gel chromatography columns (P6 Micro Bio-Spin Chromatography Columns, Bio-Rad Laboratories, Hercules, Calif.) previously equilibrated with 300 mM sodium chloride, 17.5 mM sodium citrate, pH 7.0 and 0.1% bovine serum albumin (BSA). The specific activity of the eluted HMGB1 was about 2.8×10^6 cpm/μg protein. […] The radioactivity in the lysate was then measured using a gamma counter. Specific binding was determined as total binding minus the radioactivity obtained in the presence of an excess amount of unlabeled HMGB1 or A box proteins.
To determine whether the HMGB1 A box acts as an antagonist by displacing HMGB1 binding, ^125I-labeled-HMGB1 was added to macrophage cultures and binding was measured at 4° C. after 2 hours. […] The specificity of binding was assessed as described in Example 1.
In addition, ^125I-HMG-1 binding was measured in RAW 264.7 cells plated on 24-well dishes and incubated with ^125I HMGB1 alone or in the presence of unlabeled HMGB1 or A box. […] The data are expressed as the percent of total counts obtained in the absence of unlabeled HMGB1 proteins (2,382,179 CPM/well).

B1: B box: Human HMGB1 mutant containing only the B box, SEQ ID NO:20 (protein)
chain: FKDPNAPKRLPSAFFLFCSEYRPKIKGEHPGLSIGDVAKKLGEMWNNTAADDKQPYEKKAAKLKEKYEKDIAAY
[1]
  IL-6 release, dose dependence: increased with increased amounts of B box
[2]
  IL-1β release: increased release of IL-1β

B2: A box: Human HMGB1 mutant containing only the A box, SEQ ID NO:21 (A box SEQ ID NO:22) (protein)
chain: MGKGDPKKPTGKMSSYAFFVQTCREEHKKKHPDASVNFSEFSKKCSERWKTMSAKEKGKFEDMAKADKARYEREMKTYIPPKGET
[3]
  effect on TNF stimulating activity of full length HMGB1: significantly attenuated
[4]
  apparent EC50 for inhibition of HMGB1 induced TNF release: approximately 7.5 μg/ml
[5]; 5,000 molar excess unlabeled A box, 2 hours
  displacement of 125I-HMGB1 binding: competitive antagonist of HMGB1 activity in vitro

B3: HMGB1: Recombinant full length human HMGB1, GST fusion system, SEQ ID NO:18; recombinant rat HMGB1 used in some experiments (protein)
chain: MGKGDPKKPTGKMSSYAFFVQTCREEHKKKHPDASVNFSEFSKKCSERWKTMSAKEKGKFEDMAKADKARYEREMKTYIPPKGETKKKFKDPNAPKRLPSAFFLFCSEYRPKIKGEHPGLSIGDVAKKLGEMWNNTAADDKQPYEKKAAKLKEKYEKDIAAYRAKGKPDAAKKGVVKAEKSKKKKEEEEDEEDEEDEEEEEDEEDEEDEEEDDDDE
modifications: GST fusion
notes: recombinant rat HMGB1 used in some experiments
[5]; RAW 264.7 cells
  125I-HMGB1 binding kinetics: saturable first order binding kinetics

Reference: patent publication US7897569B2, “Use of HMGB fragments as anti-inflammatory agents” (The Feinstein Institute for Medical Research, priority 2001, dated 2011)
